# The supplement of paper PMC9170038
# System: MS2 coat protein
# Experiment: apparent KD of MS2 coat protein; higher = weaker reporter binding
# Settings: Eterna round: R107
# Method in brief: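 SNAP-549-labelled MS2 coat protein was titrated onto designed RNA switches that had been transcribed on-chip from Illumina sequencing clusters. Amounts doubled from 0.7 or 1.5 nM to 3 µM in 100 mM Tris-HCl pH 7.5, 80 mM KCl, 4 mM MgCl2, with constant ligand or without. Apparent KD is the median per design of normalised cluster binding-curve fits.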
# [1] = input ligand: theophylline 20 uM
# [2] = input ligand: theophylline 2 mM
# [3] = input ligand: tryptophan 2.4 mM
Sequence,apparent KD of MS2 coat protein (input ligand: arginine 13.2 mM) [nM],apparent KD of MS2 coat protein (input ligand: none) [nM],apparent KD of MS2 coat protein [1] [nM],apparent KD of MS2 coat protein [2] [nM],apparent KD of MS2 coat protein [3] [nM]
CAAUCAAUCAAUCAAUCAAUCAACCAUGAAGGAGCGUGGGAAACCACAGGUAGGUCGCAUGGAAAACAUGAGGAUCACCCAUGUA [Casablanca],22.1,30.9,45.2,36.4,29.2
CACAUGAGGAUCACCCAUGUCUGAACUGAAGGAGCGCUAAACAAGGCAGGUAGGUCGCGGAAUUUUGUGUGCAUAUGCACAUGGG [9.O],19.7,28.2,22.3,24.6,25.8
CACAUGAGGAUCACCCAUGUCUGAACUGAAGGAGCGCUAAAUAAGGCAGGUAGGUCGCGGAAUUUUGUGUGCAUAUGCACAUGGG [9.P],17.2,27.9,30.7,26.9,23.9
CAUAUAUAAGCGGCCGCCACUUACUCAUGAGGUAACAACAUGAGGAUCACCCAUGUUUGAGGAUCAAGGACCGGGCUUAUAUAUG [AstrosSSTryB#5],27,,27.3,28.5,
CAUGAGAGAUUGUUUUGUGACUCUAACGAUACCAGAGUAGGACUUCUCCCUUGGCAGCGUGUGACAUGAGGAUCACCCAUGUCCA [theeternabot_exclusion_MS2_Theo_A_5],11.8,,12.9,,11.3
CCCAGUCAUAGCAAAGCAAAUAUACUCGAAGGAGCGUCAUAGUAGGCAGGUAGGUCGCGAGACAUGAGGAUCACCCAUGUAGAGA [ooomullin],35.6,39.7,46.7,57.8,41.3
CCGGCCAGGGCGGCCGCCACUGAACGUGGAAGAAAGAAAACAUGAGGAUCACCCAUGUAAAUCCUCAGGACCGGGCCAGGGCCGG,42.3,57.8,71,67,17.8
CCGUCACAUGAGGAUCACCCAUGUGCGGAAGGAGCGGACGACAGUCCAGGUAGGUCGCCGUAUAGCCAAUGACCAGCAGUGUCGG [Betesotiqu],5.9,10.6,20.8,9.93,13.9
CCGUCCCUCGGAAGGAGCGGCGCAAUGUAAGGGACCUUUUAUACAUGAGGAUCACCCAUGUGCCAGGUAGGUCGCCGAGAGCGUG [Erxeatge],79.5,77.2,74,145,140
CCGUUUUAUGGCGACAUAGGGCGGACUGAAGGAGCGGUAAAACAGCCAGGUAGGUCGCAGAGAUCCACAUGAGGAUCACCCAUGU [!0.aC],35.7,39.1,43.2,51.2,37.9
CCUAUCCAGUCGGCCGCCACUGACCAUUUGGAACAGUGGGUGAAUACAUGAGGAUCACCCAUGUACAGGACCGGGACUGUAUAGG [Ex Tryptophan B 21],14.4,11.2,13.1,10.4,27.9
CCUAUGCAGUCGGCCGCCACUGAACAUGAGGAUCACCCAUGUAAUUAAAAUUAUGAUCCUGAAAUCAGGACCGGGACUGUAUAGG [Ex Tryptophan B 5],28.6,,165,431,
CCUCAAUAGACGGCCGCCACUGAAUCAUGCGGAUACAUGAGGAUCACCCAUGUGGGUGUGGUACGCAGGACCGGGUCAAGACCCG [#13 Same State - Tryptophan B],278,145,454,1860,149
CCUCAAUAGACGGCCGCCACUGAGACAUGAGGAUACAUGAGGAUCACCCAUGUGGGUGUGUCACGCAGGACCGGGUCAAGACCCG [Tryp B SS t2],183,,497,794,
CCUCAUGAACAUGAGGAUCACCCAUGUACACGAGGACCGGUACGGCCGCCACUCGAAUAACCUAAAUAUAAAUAAUAAUAAUAGG [5' end split MS2],14.6,,20.1,18.1,
CCUUACGUUGGGCAGCCAGUUCGAAGUGAUACCAGUCACAAAAGUGACCCUUGGCAGCACCGCACAUGAGGAUCACCCAUGUCUA [SSThA NP+V+V2 #8 Same Structure],36.4,34.8,55.1,63.3,62.8
CGAAUAUAGACGGCCGCCACUCUACAAACAUGAGGAUCACCCAUGUUCACAUAGAGGAAACUCAUGAGGACCGGGUCAUAGGCUU [#20 Same State - Tryptophan B],23.5,,32.5,27.4,
CGAUCCUGCAGGGAUACCAGCGCCGCUUGAUAACUGUGCACAUGAGGAUCACCCAUGUAGCGCCCUUGGCAGCCCAGCUAGAGGG [Same State Theophylline B GF25],12.9,15,29.2,13.9,14.7

Sequence,apparent KD of MS2 coat protein (input ligand: arginine 13.2 mM) [nM],apparent KD of MS2 coat protein (input ligand: none) [nM],apparent KD of MS2 coat protein [1] [nM],apparent KD of MS2 coat protein [2] [nM],apparent KD of MS2 coat protein [3] [nM]
CGCACAUGAGGAUCACCCAUGUGAGGGCGGCGAGGACCGGUACGGCCGCCACUCGCAGGACAUGAGGAUCACCCAUGUGCCGCCG [SSTA DOUBLE!!! :-D],32.5,548,397,501,351
CGGCCCUCACGUGAGGAUCACCCACGUGAUACCAGCCUGGAAACAGGCCCUUGGCAGCACUAGGUCAUCAAAGAUGACCAAGCCG [TheoAX 27 #OpenEnded #AlternativeMS2],11.8,10.7,14.1,18.9,11.3
CGGUCGGUCGGUCGGUGAGUAUGGGAUGAAGGAGCGUGGGAAGCUACAGGUAGGUCGCAUCCGGGACAUGAGGAUCACCCAUGUU [#19 Same State - Arginine A],19.8,27.7,43.3,41.7,25.1
CGGUUUGUGAUGGAUACCAGCAGAGUGACUGUUUAUCCUGACAUGAGGAUCACCCAUGUGUGCCCUUGGCAGCUGUUGUGGGCUG [8.aA],66.3,,111,,65.7
CGGUUUGUGAUGGAUACCAGCAGAGUGGCUGUUUAUCCUGACAUGAGGAUCACCCAUGUGUGCCCUUGGCAGCUGUUGUGGGCUG [8.aB],85.8,86.8,137,108,74.4
CGUCGAAACUGAAGGAGCGAGAUAACAACAUUGGGUCUCAACAUGAGGAUCACCCAUGUAUCUCAGGUAGGUCGCGGUGUCACCG [Exclusion Arginine B GF19],176,202,267,429,217
CGUCGAGACUGAAGGAGCGAGAUAACAACAUUGGGUCUCAACAUGAGGAUCACCCAUGUAUCUCAGGUAGGUCGCGGUGUCACCG [Exclusion Arginine B GF20],137,330,302,484,298
CUACAUUUGUAGAAACCGGUCACCAUUAUUCGAGGACCGGUACGGCCGCCACUCGUAUCAUGUGAUACAUGAGGAUCACCCAUGU [Tryptophan A 9],27.3,,33.7,45.5,
CUAUAAAUAGCGGCCGCCACUUACUCAUGAGGUAACAACAUGAGGAUCACCCAUGUUUGAGGAUCAAGGACCGGGCUAUUUAUAG [AstrosSSTryB#8],23.7,,32.8,36.1,
CUAUAUGGAAACAUAUAGAAGCGAAAGCAACGAGGACCGGUACGGCCGCCACUCGAAGAGUGGUGGACAUGAGGAUCACCCAUGU [Design 3],40.8,,71.6,99.6,
CUAUGCAGGUCGGCCGCCACUACACACAUGAGGAUCACCCAUGUAGUUACUGGGUGAAGUGGCAGUAGGACCGGGACCUGCAUAU [Brourdmod07],273,,534,799,
CUCUGAGUGAGCAAUCACUCAGAGGCGGAUACCAGCGAGGUCCAUCGCCCUUGGCAGCCGAACAUGAGGAUCACCCAUGUCGGUA [#1 Same State - Theophylline A Attempt #22 (HarryS)],9.29,,13,,11
CUGACAUGAGGAUCACCCAUGUACACUGAAGGAGCGUCGAGAAUGACAGGUAGGUCGCAGAAUAAUAAUGGUGAUGUUUAGGUAA [Exclusion Arginine A GF 2],24,20.8,34.1,26.3,23.4
CUGGACAUGAGGAUCACCCAUGUAAAUCCUCGAGGACCGGUACGGCCGCCACUCGAACGAGUGGCGCGCGAGUGCGCACUCGCGC [aKa],43.6,41.4,66.9,49.3,28.3
CUUCGCAUAGGAAAACUAUGUGAAGAAAAUCGAGGACCGGUACGGCCGCCACUCGUCCUCAACAUGAGGAUCACCCAUGUAAUAA [Mat - Exclusion - Trytophan A - D6],17.3,,21.2,20.4,
GAAAGAUGAGGCGGCAGUACCGAUGUCGAUACCAGCAUGAACAAAUGCCCUUGGCAGCGACAUGAGGAUCACCCAUGUAUCUGCG [Reraatlaan],14.5,,16.1,,11.6
GACCGAUUAUAGCACGAUUGUCUUGUGGAAGGAGCGCAGAGGGCUGCAGGUAGGUCGCCACAUGAGGAUCACCCAUGUCAGGAUA [Raanti],4.57,60,66.6,59.1,46.6
GAGAGAGGAGUGCGGCGUGUUCCGCUCCGUCGAGGACCGGUACGGCCGCCACUCGACAUGAGGAUCACCCAUGUCCUCUCUCGCG [#1 Exclusion - Tryptophan A Attempt #4 (HarryS)],16.8,,102,42.1,
